# B1: Protein kinase, cGMP-dependent, regulatory, Type I (enzyme, human, UniProt Q13976-2 1-686, looked up)
# chain: MGTLRDLQYALQEKIEELRQRDALIDELELELDQKDELIQKLQNELDKYRSVIRPATQQAQKQSASTLQGEPRTKRQAISAEPTAFDIQDLSHVTLPFYPKSPQSKDLIKEAILDNDFMKNLELSQIQEIVDCMYPVEYGKDSCIIKEGDVGSLVYVMEDGKVEVTKEGVKLCTMGPGKVFGELAILYNCTRTATVKTLVNVKLWAIDRQCFQTIMMRTGLIKHTEYMEFLKSVPTFQSLPEEILSKLADVLEETHYENGEYIIRQGARGDTFFIISKGTVNVTREDSPSEDPVFLRTLGKGDWFGEKALQGEDVRTANVIAAEAVTCLVIDRDSFKHLIGGLDDVSNKAYEDAEAKAKYEAEAAFFANLKLSDFNIIDTLGVGGFGRVELVQLKSEESKTFAMKILKKRHIVDTRQQEHIRSEKQIMQGAHSDFIVRLYRTFKDSKYLYMLMEACLGGELWTILRDRGSFEDSTTRFYTACVVEAFAYLHSKGIIYRDLKPENLILDHRGYAKLVDFGFAKKIGFGKKTWTFCGTPEYVAPEIILNKGHDISADYWSLGILMYELLTGSPPFSGPDPMKTYNIILRGIDMIEFPKKIAKNAANLIKKLCRDNPSERLGNLKNGVKDIQKHKWFEGFNWEGLRKGTLTPPIIPSVASPTDTSNFDSFPEDNDEPPPDDNSGWDIDF
# B2: synphilin (protein, UniProt Q9Y6H5 1-919, looked up)
# chain: MEAPEYLDLDEIDFSDDISYSVTSLKTIPELCRRCDTQNEDRSVSSSSWNCGISTLITNTQKPTGIADVYSKFRPVKRVSPLKHQPETLENNESDDQKNQKVVEYQKGGESDLGPQPQELGPGDGVGGPPGKSSEPSTSLGELEHYDLDMDEILDVPYIKSSQQLASFTKVTSEKRILGLCTTINGLSGKACSTGSSESSSSNMAPFCVLSPVKSPHLRKASAVIHDQHKLSTEETEISPPLVKCGSAYEPENQSKDFLNKTFSDPHGRKVEKTTPDCQLRAFHLQSSAAESKPEEQVSGLNRTSSQGPEERSEYLKKVKSILNIVKEGQISLLPHLAADNLDKIHDENGNNLLHIAASQGHAECLQHLTSLMGEDCLNERNTEKLTPAGLAIKNGQLECVRWMVSETEAIAELSCSKDFPSLIHYAGCYGQEKILLWLLQFMQEQGISLDEVDQDGNSAVHVASQHGYLGCIQTLVEYGANVTMQNHAGEKPSQSAERQGHTLCSRYLVVVETCMSLASQVVKLTKQLKEQTVERVTLQNQLQQFLEAQKSEGKSLPSSPSSPSSPASRKSQWKSPDADDDSVAKSKPGVQEGIQVLGSLSASSRARPKAKDEDSDKILRQLLGKEISENVCTQEKLSLEFQDAQASSRNSKKIPLEKRELKLARLRQLMQRSLSESDTDSNNSEDPKTTPVRKADRPRPQPIVESVESMDSAESLHLMIKKHTLASGGRRFPFSIKASKSLDGHSPSPTSESSEPDLESQYPGSGSIPPNQPSGDPQQPSPDSTAAQKVATSPKSALKSPSSKRRTSQNLKLRVTFEEPVVQMEQPSLELNGEKDKDKGRTLQRTSTSNESGDQLKRPFGAFRSIMETLSGNQNNNNNYQAANQLKTSTLPLTSLGRKTDAKGNPASSASKGKNKAA
# What was measured:
# [1] = molecular target: human alpha-synuclein (wild-type, recombinant) (human); assay: cell-based or functional assay
# [2] = molecular target: Polo like kinase 2 (PLK2) (human); assay: cell-based or functional assay
Binder,"percentage of phospho-synuclein by ELISA, cDNA transfected into PEAK-Syn cells [1]","percent phospho-synuclein by ELISA, PLK2, synuclein and synphilin co-transfected into HEK cells [2]"
B1,8.9%,–
B2,–,83.3%
